Reference: article PMC7067600 (Nature structural & molecular biology, 2019)

T1: FANCI (isolated) (Gallus gallus, UniProt B0I564 1-1338)
T1 sequence: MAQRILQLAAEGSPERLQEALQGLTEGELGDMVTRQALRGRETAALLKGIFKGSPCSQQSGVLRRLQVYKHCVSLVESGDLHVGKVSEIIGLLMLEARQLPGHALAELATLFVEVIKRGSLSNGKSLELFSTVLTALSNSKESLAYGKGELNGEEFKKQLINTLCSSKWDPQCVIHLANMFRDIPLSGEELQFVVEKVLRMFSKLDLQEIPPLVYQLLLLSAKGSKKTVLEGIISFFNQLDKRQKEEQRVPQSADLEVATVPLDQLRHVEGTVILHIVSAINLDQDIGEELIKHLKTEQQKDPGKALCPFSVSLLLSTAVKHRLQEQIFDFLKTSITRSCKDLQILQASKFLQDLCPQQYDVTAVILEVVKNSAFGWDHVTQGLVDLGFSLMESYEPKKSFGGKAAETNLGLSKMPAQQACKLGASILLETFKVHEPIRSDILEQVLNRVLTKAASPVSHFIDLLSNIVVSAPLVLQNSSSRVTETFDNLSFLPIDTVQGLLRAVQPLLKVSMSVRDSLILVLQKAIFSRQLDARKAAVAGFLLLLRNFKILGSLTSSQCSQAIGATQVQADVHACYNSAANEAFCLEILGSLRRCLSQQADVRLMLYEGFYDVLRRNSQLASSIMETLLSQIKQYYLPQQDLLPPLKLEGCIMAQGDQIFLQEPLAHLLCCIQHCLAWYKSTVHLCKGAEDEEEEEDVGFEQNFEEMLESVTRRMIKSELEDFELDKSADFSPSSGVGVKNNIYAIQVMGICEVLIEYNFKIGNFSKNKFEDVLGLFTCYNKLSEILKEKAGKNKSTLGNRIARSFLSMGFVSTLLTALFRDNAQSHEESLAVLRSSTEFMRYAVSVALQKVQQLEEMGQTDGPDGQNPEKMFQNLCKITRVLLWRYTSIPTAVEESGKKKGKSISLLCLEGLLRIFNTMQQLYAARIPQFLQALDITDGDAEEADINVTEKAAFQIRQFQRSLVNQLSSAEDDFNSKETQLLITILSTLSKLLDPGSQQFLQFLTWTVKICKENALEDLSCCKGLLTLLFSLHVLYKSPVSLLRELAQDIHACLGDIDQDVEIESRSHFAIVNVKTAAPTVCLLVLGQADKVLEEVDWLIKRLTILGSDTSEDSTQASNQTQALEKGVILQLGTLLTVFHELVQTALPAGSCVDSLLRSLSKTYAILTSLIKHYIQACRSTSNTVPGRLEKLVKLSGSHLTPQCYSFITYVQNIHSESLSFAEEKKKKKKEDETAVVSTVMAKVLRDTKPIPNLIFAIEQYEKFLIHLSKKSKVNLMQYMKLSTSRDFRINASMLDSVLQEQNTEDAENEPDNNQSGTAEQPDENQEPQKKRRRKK

B1: 19 bp dsDNA (dsDNA)
DNA 1: ATCGATGTCTCTAGACAGC
DNA 2: GCTGTCTAGAGACATCGAT
B2: His-tagged Gallus gallus FANCI (expressed alone) (natural protein, UniProt B0I564 1-1338, looked up)
chain: T1 sequence
B3: StrepII-tagged Gallus gallus FANCD2 (expressed alone) (natural protein, UniProt Q68Y81 1-1439, looked up)
chain: MVSKRKLSKIDAAEESSKTDLQSRCPETKRSRISDKRAPSQGGLENEGVFEELLRTSGIILKVGEGQNEIAVDQTAFQKKLRVALEKHPSYPGVVNEFISGLESHIKDRSQFKNCLLPCTPARTEGSRTLVHSYCESLIKLLLGIKILQPAVVTLLLEKIPEFFFDVVGTFGTNFPRLIVNQFKWLDGLLDSQDLVKKLMQMLSVSPVPIQHDIITSLPEILEDSQQNEVARELSCLLKQGRRLTVPILDALSRLDLDAELLAEVRQSAMTIVPSVKLEDLPVVIKFILHNVKAADAVEVISDLRKSLDLSSCVLPLQLLGSQRKLKSQAQASSSMSQVTTSQNCVKLLFDVIKQAVRFQKDVSEAWIKAIENSTSVSDHKVLDLIVLLLIHSTNSKNRKQTEKVLRSKIRLGCMPEQLMQNAFQNHSMVIKDFFPSILSLAQTFLHSAHPAVVSFGSCMYKQAFAVFDSYCQQEVVCALVTHVCSGNETELDISLDVLTDLVILHPSLLLRYATFVKTILDSMQKLNPCQIRKLFYILSTLAFSQRQEGSYIQDDMHMVIRKWLSSSVPNHKQMGIIGAVTMMGSVALKRNEADGGLLERPELSIECDGQLSTLLDLVGFCCEQTPEVLALYYDELANLIEKQKGNLDLQLLDKFGKSLVEDFPNDFVVDLSPTVDGSFLFPVKSLYNLDEDETQGAIAINLLPLVSQSEPGRVADEMSNSRKRVVSPICLSPCFRLLRLYTGEQNNGSLEEIDALLGCPLYLTDLEVEGKLDSLSKQEREFLCSLLFYALNWFREVVNAFCQQQDAEMKGKVLTRLQNITELQNVLGKCLAATPGYVPPPATFDSEAPEGVPSINAGGPVRKKNGKKRKSDSSKACSAERTQADESSDGNQPDTELSELEKSATEKETGNPLAQLQSYRPYFRELDLEVFSVLHCGLLTKSILDTEMHTEASEVVQLGPAELCFLLDDMCWKLEHVLTPGSTRRVPFLKERGNKDVGFSHLCQRSPKEVAVCVVKLLKPLCNHMENMHNYFQTVIPNQGVVDESGLNIQEYQLMSSCYHQLLLAFRLLFAWSGFSQHENSNLLRSALQVLADRLKPGETEFLPLEELISESFQYLLNFQASIPSFQCAFILTQVLMAISEKPMTGWKREKMASLAKQFLCQSWMKPGGDREKGSHFNSALHTLLCVYLEHTDNILKAIEEISSVGVPELINSAKDGCSSTYPTLSRQTFPVFFRVMMAQLESSVKSIPAGKPSDSGEVQLEKLLKWNIAVRNFHILINLVKVFDSRPVLSICLKYGRLFVEAFLKLAMPLLDHSFKKHRDDVQSLLKTLQLSTRQLHHMCGHSKIHQDLGLTNHVPLLKKSLEQFVYRVKAMLAFNHCQEAFWVGVLKNRDLQGEEILSQASAAPEEDSAEGSEEDTADSAAEEPDGTDSDSGGAGR
B4: 14 bp dsDNA (dsDNA)
DNA 1: ATCGATGTCTCTAG
DNA 2: CTAGAGACATCGAT
B5: 39 bp dsDNA (dsDNA)
DNA 1: ATCGATGTCTCTAGACAGCTGCTCAGGATTGATCTGTAA
DNA 2: TTACAGATCAATCCTGAGCAGCTGTCTAGAGACATCGAT

Legend:
[1] = target: FANCD2 (in co-expressed D2-I);FANCI (in co-expressed D2-I) (Gallus gallus;Gallus gallus, UniProt Q68Y81;B0I564 1-1439;1-1338, |); test: EMSA
[2] = target: B3; test: pull-down
SEC = target: the molecule itself; test: SEC
FANCD2 (isolated) = FANCD2 (isolated) (Gallus gallus, UniProt Q68Y81 1-1439); test: EMSA
FANCI (isolated) = target: T1, FANCI (isolated); test: EMSA

B1: binds [1].

B2 was tested, and the “stoichiometry N” value [2] was ~1 FANCI:FANCD2.

For B3, the “stoichiometry N” value (SEC) was 2.

B4: no binding [1].

B5: no binding (FANCD2 (isolated)); binds (FANCI (isolated)).
